Stoichiometry of inhibition (SI) and kon data for two substances are collected here from paper PMC5127057.

By kon is commonly meant the second-order rate constant of association.

The target of assay [1] is Human Neutrophil Elastase (human) (UniProt P08246). The experiment in a line: stoichiometry of inhibition by titration of residual protease activity; 200 nM HNE or 300 nM PR3 mixed with varied Siropin, molar ratios from 0 to 10, 5 min at 37 °C, then substrate, absorbance at 405 nm for 30 min; x-intercept of linear regression; 20 mM Tris-HCl, 500 mM NaCl, pH 8.0.
Sequence of UniProt P08246 (P08246 30-267): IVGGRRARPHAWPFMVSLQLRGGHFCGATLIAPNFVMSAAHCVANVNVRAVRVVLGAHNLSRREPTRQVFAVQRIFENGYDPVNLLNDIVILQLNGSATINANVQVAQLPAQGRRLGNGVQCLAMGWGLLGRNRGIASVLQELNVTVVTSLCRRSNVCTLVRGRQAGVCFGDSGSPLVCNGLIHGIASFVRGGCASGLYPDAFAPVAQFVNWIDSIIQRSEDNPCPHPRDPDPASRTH
The target of assay [2] is Human Proteinase 3 (human) (UniProt P24158). The description is as above.
Sequence of UniProt P24158 (P24158 28-248): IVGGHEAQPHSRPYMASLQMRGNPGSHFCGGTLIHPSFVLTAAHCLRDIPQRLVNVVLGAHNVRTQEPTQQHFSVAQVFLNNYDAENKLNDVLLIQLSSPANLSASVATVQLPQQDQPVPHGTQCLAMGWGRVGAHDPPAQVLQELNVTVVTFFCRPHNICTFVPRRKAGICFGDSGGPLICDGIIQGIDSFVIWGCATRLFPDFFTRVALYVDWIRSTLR
The target in assay [3] is Human Neutrophil Elastase (human) (UniProt P08246). The experiment in a line: progress curve kinetics of protease inhibition; pseudo-first-order conditions, Siropin 1 to tenfold over protease, 200 µM substrate, HNE (200 nM) or PR3 (300 nM), 37 °C, 405 nm for 20 min; k obs against Siropin concentration, slope k'app corrected for substrate competition (Km 114 µM HNE, 270 µM PR3).

In assay [4] the target is Human Proteinase 3 (human) (UniProt P24158). The description is as above.

As for Siropin 2 (natural protein), the stoichiometry of inhibition (SI) in assay [1] amounted to 1.82; in assay [2], 1.1. Further, the kon was found to be 77000 M⁻¹ s⁻¹ in assay [3] and 110000 M⁻¹ s⁻¹ in assay [4].

For Siropin 1 (natural protein), the stoichiometry of inhibition (SI) came to 1.76 in assay [1] and 1.1 in assay [2]. In addition, the figures for the kon in assay [3] and in assay [4] were 84000 M⁻¹ s⁻¹ and 260000 M⁻¹ s⁻¹, respectively.
